Results reported in patent US20110280883A1 (SAMSUNG ELECTRONICS, published 2011).

Molecular target: T1, EGFR on A431 cell line (overexpresses EGFR) (UniProt P00533 25-1210)
T1 construct: whole, on cells; also called A431 cells; cells overexpressing EGFR
Experiment: cell ELISA on A431 cells attached to the plate, antibody titrated
Description: Binding capacity between the antibody obtained in 5 and the A431 cell line (ATCC) which overexpresses EGFR is determined by ELISA [Biological efficacy of a chimeric antibody to the epidermal growth factor receptor in a human tumor xenograft model, Clinic. Cancer res., 1995, vol. 1, 1311-1318] (the entire contents of which are incorporated herein by reference). The protocol for the ELISA assay is similar to that described in 6 above, except that antibody was used over a range of concentration and A431 cells were attached to the plate.

- Kd: 1.09 nM
B1: Erbb1 78 clone antibody (fully human full-length IgG) (antibody, V domains shown)
VH: QMQLVQSGGGVVRPGGSLRLSCAASGFTFDDYGMSWVRQAPGKGLEWVSGINWNGGSTGYADSVKGRFTISRDNAKNSLYLQMNSLRAEDTAVYYCARDYWGSLDYWGQGTLITVSS
VL: QSALTQPASVSGSPGQSITISCTGTSSDVGGYNYVSWYQQNSGKAPKLMIHDVNRRPSGVSNRFSGSKSGNTASLTIAGLQADDEADYYCSSYVSTNTYVFGTGTKVTVL
notes: also called Erbb1-78 antibody
